Series [1] has as its target T1, DNA polymerase mu (Polµ) (Homo sapiens, UniProt Q9NP87 1-494). In words: EMSA; EMSA: 50 mM Tris-HCl pH 7.5, 0.1 mg/ml BSA, 1 mM DTT, 4% glycerol, 5 nM DNA, 10 min at 30°C; footprinting: same buffer, 30 nM DNA, 37°C (2.5 mM MgCl2 and 100 µM dNTP where stated). The settings on record: protein: recombinant, tags: pRSETA-hPolµ construct. Background: A gel shift assay detects complexes by their altered migration in electrophoresis.

Series [2] concerns the target T2, Polµ-ΔBRCT (Homo sapiens, UniProt Q9NP87 138-494). The series is described as follows: EMSA; 5'-P assignment inferred: binding undetectable without it; EMSA: 50 mM Tris-HCl pH 7.5, 0.1 mg/ml BSA, 1 mM DTT, 4% glycerol, 5 nM DNA, 10 min at 30°C; footprinting: same buffer, 30 nM DNA, 37°C (2.5 mM MgCl2 and 100 µM dNTP where stated). The settings on record: protein: recombinant; tags: pRSETA construct; label: 32P; 3' overhang 2 nt (text says 3 nt), other end blunt.

Series [3] has as its target T3, DNA polymerase beta (Polβ) (Homo sapiens, UniProt P06746 1-335). In words: EMSA; 100 nM protein; EMSA: 50 mM Tris-HCl pH 7.5, 0.1 mg/ml BSA, 1 mM DTT, 4% glycerol, 5 nM DNA, 10 min at 30°C; footprinting: same buffer, 30 nM DNA, 37°C (2.5 mM MgCl2 and 100 µM).
In series [4] the target is T3, DNA polymerase beta (Polβ). In words: DNase I footprinting; 100 µM dTTP, 2.5 mM MgCl2; protects positions 36-45; EMSA: 50 mM Tris-HCl pH 7.5, 0.1 mg/ml BSA, 1 mM DTT, 4% glycerol, 5 nM DNA, 10 min at 30°C; footprinting: same buffer, 30 nM DNA, 37°C (2.5 mM MgCl2 and 100 µM).
The target of series [5] is T2, Polµ-ΔBRCT. The series is described as follows: DNase I footprinting; protects 10 nt, no downstream extension; EMSA: 50 mM Tris-HCl pH 7.5, 0.1 mg/ml BSA, 1 mM DTT, 4% glycerol, 5 nM DNA, 10 min at 30°C; footprinting: same buffer, 30 nM DNA, 37°C (2.5 mM MgCl2 and 100 µM dNTP where stated). The settings on record: protein: recombinant; tags: pRSETA construct; label: 32P at 5' end of FP-T; 1-nt gap, three strands; template FP-T, primer FP-P, downstream FP-D; otherwise blunt.

Series [6] has as its target T1, DNA polymerase mu (Polµ). The series is described as follows: DNase I footprinting; 100 µM dTTP, 2.5 mM MgCl2; protects positions 36-52; EMSA: 50 mM Tris-HCl pH 7.5, 0.1 mg/ml BSA, 1 mM DTT, 4% glycerol, 5 nM DNA, 10 min at 30°C; footprinting: same buffer, 30 nM DNA, 37°C (2.5 mM MgCl2 and 100 µM dNTP where stated). The settings on record: protein: recombinant; tags: pRSETA-hPolµ construct; label: 32P at 5' end of FP-T; 1-nt gap, three strands; template FP-T, primer FP-P, downstream FP-D; otherwise blunt.

Another series concerns the target Polµ H329G (Homo sapiens, UniProt Q9NP87 1-494, H329G). In words: DNase I footprinting; with/without dATP or dTTP; no expansion with nucleotide, no downstream BRCT extension; EMSA: 50 mM Tris-HCl pH 7.5, 0.1 mg/ml BSA, 1 mM DTT, 4% glycerol, 5 nM DNA, 10 min at 30°C; footprinting: same buffer, 30 nM DNA, 37°C (2.5 mM MgCl2 and 100 µM dNTP where stated). The settings on record: protein: recombinant; label: 32P at 5' end of FP-T; 1-nt gap, three strands; template FP-T, primer FP-P, downstream FP-D; otherwise blunt.

The next series concerns the target Polµ R387A (Homo sapiens, UniProt Q9NP87 1-494, R387A). In words: DNase I footprinting; footprint expands to primer side with dTTP; downstream extension only partly recovered with dTTP; EMSA: 50 mM Tris-HCl pH 7.5, 0.1 mg/ml BSA, 1 mM DTT, 4% glycerol, 5 nM DNA, 10 min at 30°C; footprinting: same buffer, 30 nM DNA, 37°C (2.5 mM MgCl2 and 100 µM dNTP where stated). The settings on record: protein: recombinant, label: 32P at 5' end of FP-T, 1-nt gap, three strands, template FP-T, downstream FP-D, otherwise blunt.

Series [7] has as its target T2, Polµ-ΔBRCT. The series is described as follows: EMSA; 300 and 600 nM protein; EMSA: 50 mM Tris-HCl pH 7.5, 0.1 mg/ml BSA, 1 mM DTT, 4% glycerol, 5 nM DNA, 10 min at 30°C; footprinting: same buffer, 30 nM DNA, 37°C (2.5 mM MgCl2 and 100 µM dNTP where stated). The settings on record: protein: recombinant; tags: pRSETA construct; label: 32P; 3' overhang 2 nt (text says 3 nt), other end blunt.

[8] abbreviates: label: 32P, 3' overhang 2 nt (text says 3 nt), other end blunt.
Where [9] appears, read: label: 32P at 5' end of Sp1C, 1-nt gap, three strands, otherwise blunt.

T2 sequence (Q9NP87 138-494, stated change not applied): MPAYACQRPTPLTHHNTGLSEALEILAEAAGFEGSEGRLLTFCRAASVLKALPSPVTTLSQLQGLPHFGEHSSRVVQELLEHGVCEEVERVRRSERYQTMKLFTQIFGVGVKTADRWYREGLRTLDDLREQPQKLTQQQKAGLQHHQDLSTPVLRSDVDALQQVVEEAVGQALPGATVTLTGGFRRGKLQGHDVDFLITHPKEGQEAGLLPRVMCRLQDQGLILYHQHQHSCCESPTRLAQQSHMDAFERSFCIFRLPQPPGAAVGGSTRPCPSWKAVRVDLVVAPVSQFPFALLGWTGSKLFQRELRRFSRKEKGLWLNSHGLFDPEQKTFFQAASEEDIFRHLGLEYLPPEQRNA
T1 sequence (Q9NP87 whole entry): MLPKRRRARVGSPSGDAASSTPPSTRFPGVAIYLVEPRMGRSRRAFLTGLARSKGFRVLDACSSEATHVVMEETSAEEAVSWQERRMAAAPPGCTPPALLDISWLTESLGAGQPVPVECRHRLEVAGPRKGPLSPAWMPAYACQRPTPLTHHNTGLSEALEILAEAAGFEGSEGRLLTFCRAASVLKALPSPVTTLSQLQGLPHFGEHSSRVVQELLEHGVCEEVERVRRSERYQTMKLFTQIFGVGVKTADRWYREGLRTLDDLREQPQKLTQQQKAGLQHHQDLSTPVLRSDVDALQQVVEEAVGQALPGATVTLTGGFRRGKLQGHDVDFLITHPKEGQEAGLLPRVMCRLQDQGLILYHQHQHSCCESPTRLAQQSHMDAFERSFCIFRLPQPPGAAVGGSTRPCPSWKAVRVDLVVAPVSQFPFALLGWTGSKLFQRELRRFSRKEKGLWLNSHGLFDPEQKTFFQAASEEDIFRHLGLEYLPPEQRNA
Polµ R387A, sequence (Q9NP87 whole entry R387A): as the sequence (Q9NP87 whole entry) above, with R387A counted along it
Polµ H329G, sequence (Q9NP87 whole entry H329G): as the sequence (Q9NP87 whole entry) above, with H329G counted along it

B1: 3'-protruding end GT/NHEJ-D, 5'-P (dsDNA)
DNA 1: CCCTCCCTCCCGT
DNA 2: GGGAGGGAGGG
modifications: 5'-phosphate on NHEJ-D (S15)
Broadly, the Kd is the free concentration of one partner at which half of the binding sites on the other are occupied at equilibrium, for simple one-to-one binding. With B1, the Kd with DNA polymerase mu (Polµ) [1] (setting [8]) stood at 165 nM; with Polµ-ΔBRCT [2], 2000 nM.

B2: 1-nt gap Sp1C/T28/D12, 5'-P (dsDNA)
DNA 1: AGAAGTGTATCTCGTACTCACTGTGATC
DNA 2: GATCACAGTGAGTAC
DNA 3: AGATACACTTCT
modifications: 5'-phosphate on D12 (S3)
For the molecule B2, the binding result in series [3] is reported as “binds”. Besides, the Kd with DNA polymerase mu (Polµ) [1] (setting [9]) was 100 nM.

B3: footprint 1-nt gap FP-T/FP-P/FP-D, 5'-P (dsDNA)
DNA 1: GGCAGCTTGGATCTTGTCGAAAAACGTCAACATTCGCCTAGGCTTCGGCAATACTGAGGTCTTGTCGAAAAACGTCAACATTGCGTGGCC
DNA 2: GGCCACGCAATGTTGACGTTTTTCGACAAGACCTCAGTAT
DNA 3: GCCGAAGCCTAGGCGAATGTTGACGTTTTTCGACAAGATCCAAGCTGCC
modifications: 5'-phosphate on FP-D (S10)
For the molecule B3, the binding result (in series [4]; in the series with Polµ-ΔBRCT [5]; with DNA polymerase mu (Polµ) [6]; with Polµ H329G; with Polµ R387A) was “binds” each time.

B4: 3'-protruding end GT/NHEJ-D, 5'-OH (dsDNA)
DNA 1: CCCTCCCTCCCGT
DNA 2: GGGAGGGAGGG
Regarding B4, the Kd with DNA polymerase mu (Polµ) [1] (setting [8]) amounted to 400 nM. Moreover, the binding result with Polµ-ΔBRCT [7] is “no binding”.

B5: 1-nt gap Sp1C/T28/D12, 5'-OH (dsDNA)
DNA 1: AGAAGTGTATCTCGTACTCACTGTGATC
DNA 2: GATCACAGTGAGTAC
DNA 3: AGATACACTTCT
Take B5: the Kd with DNA polymerase mu (Polµ) [1] (setting [9]) worked out at 500 nM.

The values are drawn from paper PMC3526283, “DNA-binding determinants promoting NHEJ by human Polµ”.
